Common to all, as to details: both partners purified
Experiment [1] deals with T1, complement C8 (UniProt P07357 31-584; P07358 55-591; P07360 21-202).
T1 construct: source: bought: Complement Technologies; copies: + +
In words: SPR; BIAcore 3000; TSP-1 bound covalently to CM5 chips at 0.1 uM; complement proteins as analytes at 12.3, 37.03, 111.1, 333.3, 1,000 nM in PBS plus 0.05% Tween 20; 1:1 Langmuir binding model; average of 3 repeated measurements. Background: SPR reads the build-up and loss of mass on a sensor chip optically.
T1 sequence (P07357 31-584, chain 1 of 3): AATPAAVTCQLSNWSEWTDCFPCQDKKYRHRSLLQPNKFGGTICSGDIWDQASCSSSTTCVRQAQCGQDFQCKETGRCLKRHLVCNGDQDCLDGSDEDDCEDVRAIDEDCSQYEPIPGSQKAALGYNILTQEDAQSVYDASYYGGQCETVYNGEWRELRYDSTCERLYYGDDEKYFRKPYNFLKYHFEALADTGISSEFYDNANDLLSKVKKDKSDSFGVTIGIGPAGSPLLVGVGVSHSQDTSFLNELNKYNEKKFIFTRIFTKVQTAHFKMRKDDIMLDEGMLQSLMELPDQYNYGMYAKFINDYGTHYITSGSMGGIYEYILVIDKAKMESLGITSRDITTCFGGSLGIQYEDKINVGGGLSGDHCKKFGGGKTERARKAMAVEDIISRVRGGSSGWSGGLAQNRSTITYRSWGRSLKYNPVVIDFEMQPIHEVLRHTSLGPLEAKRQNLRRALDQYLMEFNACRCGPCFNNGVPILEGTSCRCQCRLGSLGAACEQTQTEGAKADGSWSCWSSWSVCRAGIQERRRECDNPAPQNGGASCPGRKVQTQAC
T1 sequence (P07358 55-591, chain 2 of 3): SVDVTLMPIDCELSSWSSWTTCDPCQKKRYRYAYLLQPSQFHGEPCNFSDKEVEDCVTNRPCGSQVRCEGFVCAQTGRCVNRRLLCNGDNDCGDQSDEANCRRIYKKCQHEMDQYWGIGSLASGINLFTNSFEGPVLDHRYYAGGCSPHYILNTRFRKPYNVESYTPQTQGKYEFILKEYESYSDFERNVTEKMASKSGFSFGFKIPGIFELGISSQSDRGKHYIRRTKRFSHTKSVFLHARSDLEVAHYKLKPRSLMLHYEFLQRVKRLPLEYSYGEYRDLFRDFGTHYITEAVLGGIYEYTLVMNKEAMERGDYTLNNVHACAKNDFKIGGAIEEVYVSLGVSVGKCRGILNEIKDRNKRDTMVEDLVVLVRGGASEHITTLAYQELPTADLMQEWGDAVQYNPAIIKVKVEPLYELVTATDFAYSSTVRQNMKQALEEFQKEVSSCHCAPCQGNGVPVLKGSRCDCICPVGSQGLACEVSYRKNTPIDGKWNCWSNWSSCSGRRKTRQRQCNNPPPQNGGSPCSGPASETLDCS
T1 sequence (P07360 21-202, chain 3 of 3): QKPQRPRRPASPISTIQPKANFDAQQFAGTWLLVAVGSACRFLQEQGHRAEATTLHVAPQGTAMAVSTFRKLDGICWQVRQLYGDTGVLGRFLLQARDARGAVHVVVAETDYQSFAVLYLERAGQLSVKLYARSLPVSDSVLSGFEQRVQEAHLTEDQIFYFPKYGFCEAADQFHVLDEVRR

A further experiment has as its target T2, complement factor H (UniProt P08603 19-1231).
T2 construct: Complement factor H; also called FH; source: bought: Complement Technologies
The experiment is described as above.

Experiment [2] concerns the target T3, complement C8 (UniProt P07357 31-584; P07358 55-591; P07360 21-202).
T3 construct: Complement component C8 alpha chain; Complement component C8 beta chain; Complement component C8 gamma chain; source: bought: Complement Technologies; copies: + +
In words: SPR; BIAcore 3000; TSP-1 bound covalently to CM5 chips at 0.1 μM; complement proteins flowed at 12.3, 37.03, 111.1, 333.3, 1,000 nM in PBS plus 0.05% Tween 20; 1:1 Langmuir binding model; average of 3 measurements.
T3 sequence (P07357 31-584, chain 1 of 3): as the sequence (P07357 31-584, chain 1 of 3) above
T3 sequence (P07358 55-591, chain 2 of 3): as the sequence (P07358 55-591, chain 2 of 3) above
T3 sequence (P07360 21-202, chain 3 of 3): as the sequence (P07360 21-202, chain 3 of 3) above

The next experiment has as its target T4, complement C5 (UniProt P01031 19-673; P01031 678-1676).
T4 construct: Complement C5 beta chain; Complement C5 alpha chain; source: bought: Complement Technologies
The experiment is described as above.

In a further experiment the target is T5, complement factor H (FH) (UniProt P08603 19-1231).
T5 construct: Complement factor H, obtained from Complement Technologies; source: bought: Complement Technologies
The experiment is described as above.

In a further experiment the target is T6, complement C3 (UniProt P01024 23-667; P01024 672-1663).
T6 construct: Complement C3 beta chain (75 kDa), cut from the C3 precursor; Complement C3 alpha chain (110 kDa), cut from the C3 precursor; source: bought: Complement Technologies
The experiment is described as above.

T4 sequence (P01031 19-673, chain 1 of 2): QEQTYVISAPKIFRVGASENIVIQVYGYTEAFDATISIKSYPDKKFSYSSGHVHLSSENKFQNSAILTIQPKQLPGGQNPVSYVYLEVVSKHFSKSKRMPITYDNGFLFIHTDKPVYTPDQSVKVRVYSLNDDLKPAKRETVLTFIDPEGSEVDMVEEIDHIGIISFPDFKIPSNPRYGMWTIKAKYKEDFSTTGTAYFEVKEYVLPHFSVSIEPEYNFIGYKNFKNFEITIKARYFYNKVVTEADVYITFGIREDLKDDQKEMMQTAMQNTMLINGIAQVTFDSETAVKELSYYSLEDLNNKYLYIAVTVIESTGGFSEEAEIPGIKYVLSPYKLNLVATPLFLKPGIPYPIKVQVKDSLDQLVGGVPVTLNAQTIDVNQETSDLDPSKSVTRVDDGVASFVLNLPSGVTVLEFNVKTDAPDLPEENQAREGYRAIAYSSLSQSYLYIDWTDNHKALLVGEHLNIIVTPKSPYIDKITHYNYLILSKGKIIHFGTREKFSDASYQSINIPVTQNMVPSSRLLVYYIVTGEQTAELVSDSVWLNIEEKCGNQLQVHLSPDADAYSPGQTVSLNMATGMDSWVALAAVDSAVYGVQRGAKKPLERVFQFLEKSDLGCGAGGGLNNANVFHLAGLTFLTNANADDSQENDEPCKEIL
T4 sequence (P01031 678-1676, chain 2 of 2): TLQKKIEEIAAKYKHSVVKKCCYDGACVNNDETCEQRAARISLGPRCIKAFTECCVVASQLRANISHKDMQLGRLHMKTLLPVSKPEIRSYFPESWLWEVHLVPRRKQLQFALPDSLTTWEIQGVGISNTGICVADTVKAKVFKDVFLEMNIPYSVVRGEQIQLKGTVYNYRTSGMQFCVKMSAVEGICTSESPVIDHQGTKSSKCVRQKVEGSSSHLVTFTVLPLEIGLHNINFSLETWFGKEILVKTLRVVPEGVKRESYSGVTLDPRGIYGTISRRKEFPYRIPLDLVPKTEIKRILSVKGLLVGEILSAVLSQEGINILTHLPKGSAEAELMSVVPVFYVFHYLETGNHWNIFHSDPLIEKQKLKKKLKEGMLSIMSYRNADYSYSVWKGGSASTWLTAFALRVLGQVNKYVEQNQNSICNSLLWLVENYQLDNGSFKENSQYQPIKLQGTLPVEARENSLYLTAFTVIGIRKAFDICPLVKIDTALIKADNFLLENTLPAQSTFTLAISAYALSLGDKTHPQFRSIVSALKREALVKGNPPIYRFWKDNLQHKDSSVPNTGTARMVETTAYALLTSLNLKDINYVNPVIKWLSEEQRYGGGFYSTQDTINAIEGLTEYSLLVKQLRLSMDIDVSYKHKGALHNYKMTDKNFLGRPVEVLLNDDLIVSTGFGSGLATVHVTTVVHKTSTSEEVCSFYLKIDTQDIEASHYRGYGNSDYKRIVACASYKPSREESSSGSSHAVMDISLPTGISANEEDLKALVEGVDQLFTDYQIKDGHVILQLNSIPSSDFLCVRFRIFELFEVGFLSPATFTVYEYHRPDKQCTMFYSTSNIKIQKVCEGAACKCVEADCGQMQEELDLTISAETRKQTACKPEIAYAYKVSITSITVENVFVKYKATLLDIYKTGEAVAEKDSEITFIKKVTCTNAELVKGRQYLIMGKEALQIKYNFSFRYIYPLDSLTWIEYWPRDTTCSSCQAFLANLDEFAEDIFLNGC
T6 sequence (P01024 23-667, chain 1 of 2): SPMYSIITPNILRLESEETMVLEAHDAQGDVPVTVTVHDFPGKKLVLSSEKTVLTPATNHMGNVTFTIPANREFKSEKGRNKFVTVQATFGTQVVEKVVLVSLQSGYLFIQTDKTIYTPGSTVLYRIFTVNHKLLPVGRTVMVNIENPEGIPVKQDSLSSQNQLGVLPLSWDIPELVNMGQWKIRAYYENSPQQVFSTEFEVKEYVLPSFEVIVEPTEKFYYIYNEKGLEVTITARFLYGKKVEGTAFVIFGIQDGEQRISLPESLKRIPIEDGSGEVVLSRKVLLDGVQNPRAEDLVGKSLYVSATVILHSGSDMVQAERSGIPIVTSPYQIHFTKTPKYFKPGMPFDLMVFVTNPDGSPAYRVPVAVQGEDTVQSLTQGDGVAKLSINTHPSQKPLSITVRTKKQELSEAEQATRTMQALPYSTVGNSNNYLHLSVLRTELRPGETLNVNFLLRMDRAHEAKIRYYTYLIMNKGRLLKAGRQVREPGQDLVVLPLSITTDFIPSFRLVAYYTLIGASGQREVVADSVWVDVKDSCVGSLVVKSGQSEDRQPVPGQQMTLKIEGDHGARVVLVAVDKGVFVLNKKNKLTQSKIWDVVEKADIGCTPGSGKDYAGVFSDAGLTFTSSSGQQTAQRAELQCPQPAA
T6 sequence (P01024 672-1663, chain 2 of 2): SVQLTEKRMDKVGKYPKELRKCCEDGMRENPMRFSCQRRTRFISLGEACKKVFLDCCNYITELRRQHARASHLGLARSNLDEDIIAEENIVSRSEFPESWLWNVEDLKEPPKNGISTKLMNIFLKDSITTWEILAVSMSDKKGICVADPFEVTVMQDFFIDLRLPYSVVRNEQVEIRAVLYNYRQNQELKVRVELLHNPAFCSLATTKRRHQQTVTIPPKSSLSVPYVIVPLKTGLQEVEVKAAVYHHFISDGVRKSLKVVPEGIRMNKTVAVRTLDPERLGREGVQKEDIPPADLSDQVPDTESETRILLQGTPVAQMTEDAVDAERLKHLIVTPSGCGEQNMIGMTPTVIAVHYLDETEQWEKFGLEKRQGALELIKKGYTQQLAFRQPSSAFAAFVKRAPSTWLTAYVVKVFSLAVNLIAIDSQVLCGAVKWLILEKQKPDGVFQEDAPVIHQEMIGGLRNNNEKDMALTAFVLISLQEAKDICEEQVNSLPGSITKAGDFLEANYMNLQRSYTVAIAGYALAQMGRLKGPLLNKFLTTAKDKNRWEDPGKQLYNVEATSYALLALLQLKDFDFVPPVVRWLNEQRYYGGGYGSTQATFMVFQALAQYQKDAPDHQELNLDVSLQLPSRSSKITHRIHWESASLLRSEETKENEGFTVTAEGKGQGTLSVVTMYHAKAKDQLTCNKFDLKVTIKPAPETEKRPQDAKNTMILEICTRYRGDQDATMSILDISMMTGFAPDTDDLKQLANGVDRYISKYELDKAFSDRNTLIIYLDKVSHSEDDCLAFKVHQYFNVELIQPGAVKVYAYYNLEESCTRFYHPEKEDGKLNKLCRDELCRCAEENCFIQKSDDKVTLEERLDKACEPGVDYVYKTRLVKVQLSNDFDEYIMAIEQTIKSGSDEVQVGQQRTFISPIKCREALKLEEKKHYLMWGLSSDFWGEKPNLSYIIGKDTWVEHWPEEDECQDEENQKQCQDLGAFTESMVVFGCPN

B1: recombinant full-length thrombospondin-1 (natural protein)
chain: not shown
notes: Thrombospondin-1, human cDNA from Sinobiological (HG10508-UT), subcloned into pFastbac1 behind a gp67 signal peptide for secretion; The gp67 signal peptide stands in place of or before the native one; also called TSP-1; source: Spodoptera frugiperda 9 cells (baculovirus), purified from cell supernatants via Ni-NTA columns; not shown: 10xHis, N-terminal, kept
What is called Kd is the equilibrium constant for the complex coming apart. In the case of B1, the Kd worked out at 310 nM with complement C8 [1] and 203 nM in the experiment with complement factor H.

B2: recombinant full-length thrombospondin-1 (TSP-1) (natural protein)
chain: not shown
notes: Thrombospondin-1, human cDNA (Sinobiological HG10508-UT) subcloned into pFastbac1 with a gp67 signal peptide for secretion and an N-terminal 10xHis tag; called recombinant full-length TSP-1; Secreted through a gp67 signal peptide; also called recombinant TSP-1; source: Spodoptera frugiperda 9 cells (baculovirus), purified from cell supernatants via Ni-NTA columns; not shown: 10xHis, N-terminal, …
On to B2, for which the Kd came out at 311 nM with complement C8 [2], 47 nM in the experiment with complement C5, 203 nM with complement factor H (FH) and 127 nM in the experiment with complement C3.
